The target of one assay is T1, EGFR:Fc (human, UniProt P00533 25-645).
T1 construct: also called soluble form of the EGFR fused to human IgG1 Fc (R&D Systems); Soluble EGFR; not shown: human IgG1 Fc
The assay is described as follows: Western blot, native conditions, 100 ng soluble receptor. The text has this: A soluble form of the EGFR fused to human IgG₁ Fc (R&D Systems) was used as a negative control.
A general note: Immunoblotting shows a protein as a band on a membrane.

Assay [1] concerns the target T2, human CSF-1R, full length, on cells (human, UniProt P07333 20-972).
T2 construct: also called cell-surface CSF-1R; B4-800-5 cells
In words: displacement of 1.5 nM ^125I-H27K15 (competitor) on EL4-CSF-1R cells.

For assay [2], the target named is T2, human CSF-1R, full length, on cells. In words: displacement of 1.5 nM ^125I-H27K15 (competitor) on EL4-CSF-1R cells, Cheng-Prusoff.
Assay [3] deals with T3, PDGFRα ECD (R&D Systems cat. 322-PR/CF) (UniProt P16234 24-528, limits assumed).
T3 construct: extracellular domain; Bought; also called soluble PDGFRα
T3 sequence (P16234 24-528 limits assumed): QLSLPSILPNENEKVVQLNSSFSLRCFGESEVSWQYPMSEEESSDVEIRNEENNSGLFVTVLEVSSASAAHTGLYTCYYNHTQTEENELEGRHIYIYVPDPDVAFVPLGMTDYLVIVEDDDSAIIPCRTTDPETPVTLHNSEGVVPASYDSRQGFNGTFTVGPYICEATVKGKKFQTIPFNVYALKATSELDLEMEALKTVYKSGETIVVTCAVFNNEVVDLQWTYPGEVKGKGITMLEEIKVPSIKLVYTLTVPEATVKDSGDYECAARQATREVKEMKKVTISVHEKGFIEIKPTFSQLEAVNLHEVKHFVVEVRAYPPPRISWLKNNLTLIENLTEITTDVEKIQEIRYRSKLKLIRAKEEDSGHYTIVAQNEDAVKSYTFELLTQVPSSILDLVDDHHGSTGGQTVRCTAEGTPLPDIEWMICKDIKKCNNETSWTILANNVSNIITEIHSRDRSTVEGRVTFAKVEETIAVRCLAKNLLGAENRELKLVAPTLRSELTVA
In words: ELISA, 300 ng coated receptor per well. As to the method: (§1) 13382) was also incubated with wells coated with receptor-human Fc fusion proteins Flt-3-Fc-, PDGFRβ-Fc, VEGFR2-Fc, VEGFR1-Fc, while PDGFRα- and SCFR-coated wells were incubated with respectively anti-PDGF-Rα (mouse IgG1, R&Dsystems cat. MAB322) and anti-SCF-R goat IgG (R&DSystems cat. AF332). […] Following revelation with tetramethylbenzidine (Sigma, cat. T8665) (0.1 mg/ml in 0.05 M sodium acetate, 0.05 M citric acid, H₂O₂ 1/7000), absorbance was measured at 450 nm and corrected by subtraction of absorbance at 540 nm using a spectrophotometer (Berthold, Tristar LB941).
(In general: In an ELISA, binding on a coated surface is turned into a signal by an enzyme label.)

In assay [4] the target is T4, vascular endothelial growth factor receptor (VEGFR)2-Fc-6×his (R&D Systems cat. 357-KD/CF) (human, UniProt P35968 20-764, limits assumed).
T4 construct: extracellular domain; Bought; also called soluble VEGFR-2
T4 sequence (P35968 20-764 limits assumed): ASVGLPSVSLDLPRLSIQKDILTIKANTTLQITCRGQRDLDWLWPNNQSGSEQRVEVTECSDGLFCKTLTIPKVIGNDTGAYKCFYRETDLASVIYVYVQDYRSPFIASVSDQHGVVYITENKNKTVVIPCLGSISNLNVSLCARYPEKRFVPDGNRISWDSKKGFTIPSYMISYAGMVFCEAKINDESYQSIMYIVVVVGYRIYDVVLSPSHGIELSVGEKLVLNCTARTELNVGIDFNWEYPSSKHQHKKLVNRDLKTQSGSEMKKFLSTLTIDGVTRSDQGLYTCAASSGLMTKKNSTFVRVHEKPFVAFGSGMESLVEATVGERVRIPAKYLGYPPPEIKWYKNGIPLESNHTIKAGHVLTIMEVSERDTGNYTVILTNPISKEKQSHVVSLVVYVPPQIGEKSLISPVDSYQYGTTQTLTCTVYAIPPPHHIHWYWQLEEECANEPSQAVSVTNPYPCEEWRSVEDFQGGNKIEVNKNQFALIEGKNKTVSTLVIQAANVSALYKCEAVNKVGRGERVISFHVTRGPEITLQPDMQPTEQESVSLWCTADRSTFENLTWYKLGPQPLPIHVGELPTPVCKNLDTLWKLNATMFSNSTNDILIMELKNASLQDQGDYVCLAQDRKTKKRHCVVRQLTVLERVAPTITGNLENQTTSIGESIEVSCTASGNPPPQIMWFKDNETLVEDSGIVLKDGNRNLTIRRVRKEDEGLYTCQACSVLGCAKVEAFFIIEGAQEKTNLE
In words: ELISA, 300 ng coated receptor per well. The protocol:
as §1

Assay [5] addresses T5, Flt-3-Fc-6×his (R&D Systems cat. 368-ST/CF) (human, UniProt P36888 27-543, limits assumed).
T5 construct: extracellular domain; Bought; also called soluble Flt-3
The assay is described as follows: ELISA, 300 ng coated receptor per well. As to the method: as §1

Assay [6] addresses T6, human SCFR ECD (R&D Systems cat. 332-SR/CF) (human, UniProt P10721 26-524).
T6 construct: extracellular domain; Bought; also called SCFR (c-kit)
In words: ELISA, 300 ng coated receptor per well. The protocol: as §1

In assay [7] the target is T7, VEGFR1-Fc-6×his (R&D Systems cat. 321-FL-050) (human, UniProt P17948 27-758, limits assumed).
T7 construct: extracellular domain; Bought; also called soluble VEGFR-1
T7 sequence (P17948 27-758 limits assumed): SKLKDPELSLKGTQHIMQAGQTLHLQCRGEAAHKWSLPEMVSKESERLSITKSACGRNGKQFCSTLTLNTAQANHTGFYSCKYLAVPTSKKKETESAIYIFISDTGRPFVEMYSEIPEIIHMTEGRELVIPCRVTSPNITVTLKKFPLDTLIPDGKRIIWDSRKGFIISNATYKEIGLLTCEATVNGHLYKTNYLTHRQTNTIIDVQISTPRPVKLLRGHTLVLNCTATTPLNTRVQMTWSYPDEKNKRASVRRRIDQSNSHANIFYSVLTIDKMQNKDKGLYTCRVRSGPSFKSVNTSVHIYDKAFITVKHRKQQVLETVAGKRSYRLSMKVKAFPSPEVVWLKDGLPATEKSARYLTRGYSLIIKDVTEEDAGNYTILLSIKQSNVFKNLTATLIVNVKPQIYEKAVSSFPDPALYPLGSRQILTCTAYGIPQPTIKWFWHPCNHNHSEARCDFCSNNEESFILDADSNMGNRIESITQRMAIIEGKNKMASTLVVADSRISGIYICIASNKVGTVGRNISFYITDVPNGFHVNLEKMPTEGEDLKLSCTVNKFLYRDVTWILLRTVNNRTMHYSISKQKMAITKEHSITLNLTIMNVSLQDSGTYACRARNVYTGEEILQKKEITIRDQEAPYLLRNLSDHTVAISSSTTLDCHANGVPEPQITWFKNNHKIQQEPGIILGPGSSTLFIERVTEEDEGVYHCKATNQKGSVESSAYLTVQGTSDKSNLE
The assay is described as follows: ELISA, 300 ng coated receptor per well. The protocol: as §1

The target of assay [8] is T8, PDGFRβ-Fc-6×his (R&D Systems cat. 385-PR/CF) (human, UniProt P09619 33-532, limits assumed).
T8 construct: extracellular domain; Bought; also called soluble PDGFRβ
T8 sequence (P09619 33-532 limits assumed): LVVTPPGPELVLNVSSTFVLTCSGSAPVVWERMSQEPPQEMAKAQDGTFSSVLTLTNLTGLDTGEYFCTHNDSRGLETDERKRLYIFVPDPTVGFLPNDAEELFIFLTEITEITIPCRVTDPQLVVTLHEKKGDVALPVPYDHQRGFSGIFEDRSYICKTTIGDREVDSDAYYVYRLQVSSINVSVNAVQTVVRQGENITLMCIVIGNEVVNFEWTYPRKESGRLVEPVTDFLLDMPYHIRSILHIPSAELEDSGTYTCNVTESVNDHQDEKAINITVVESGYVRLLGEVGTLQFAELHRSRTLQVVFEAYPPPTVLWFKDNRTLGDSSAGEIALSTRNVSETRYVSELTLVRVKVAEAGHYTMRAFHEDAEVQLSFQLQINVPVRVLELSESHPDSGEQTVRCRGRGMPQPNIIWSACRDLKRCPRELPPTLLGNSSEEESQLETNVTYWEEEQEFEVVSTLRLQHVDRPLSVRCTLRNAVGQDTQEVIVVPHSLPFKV
In words: ELISA, 300 ng coated receptor per well. The protocol: as §1

Assay [9] concerns the target T9, construct pTG18000 (human and murine D1 subdomains combined, Histidine tag) (Homo sapiens (Human), UniProt P07333 21-298).
T9 chain: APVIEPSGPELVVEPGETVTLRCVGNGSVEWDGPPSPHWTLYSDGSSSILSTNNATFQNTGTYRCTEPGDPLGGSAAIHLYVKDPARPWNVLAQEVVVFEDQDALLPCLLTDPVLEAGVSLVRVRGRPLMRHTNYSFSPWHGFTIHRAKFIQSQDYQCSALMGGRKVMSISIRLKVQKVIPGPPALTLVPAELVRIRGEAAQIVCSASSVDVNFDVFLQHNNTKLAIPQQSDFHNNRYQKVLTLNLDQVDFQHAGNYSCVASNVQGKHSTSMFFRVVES
The assay is described as follows: ELISA: His-tagged construct captured from CHO supernatant on anti-His tag coated wells; biotinylated antibody; streptavidin-HRP. As to the method: (§2) In order to map the mAb binding sites on CSF-1R, truncated mutants of human CSF-1R and chimeras between human and murine D1-D3 CSF-1R fused to Histidine tags were constructed (see FIGS. 19 and 20 for details). These constructs were expressed as secreted proteins using CHO cells. Expression of constructs was checked by immunoblot analysis using an anti-His tag antibody for detection. All constructs were captured on ELISA plate by incubating CHO culture supernatant into wells coated with an Anti-His tag antibody. Antibodies were biotinylated using Biotin-NHS (Sigma ref B3295-10 MG). Biotinylated antibodies were added to each well and binding was detected with streptavidin-HRP.

The next assay addresses T10, pTG18036.
T10 construct: truncated mutant secreted by CHO cells; also called human D1 and D2 of CSF-1R, Histidine tag
T10 single secreted chain: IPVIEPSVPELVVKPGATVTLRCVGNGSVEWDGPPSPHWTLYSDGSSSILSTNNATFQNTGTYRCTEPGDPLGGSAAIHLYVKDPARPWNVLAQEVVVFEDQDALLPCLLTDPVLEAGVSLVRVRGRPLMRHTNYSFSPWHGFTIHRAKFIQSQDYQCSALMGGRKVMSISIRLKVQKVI
The assay is described as above. The protocol:
as §2

Another assay addresses T11, pTG17983.
T11 construct: secreted by CHO cells; also called human D1-D2-D3 of CSF-1R, Histidine tag
T11 single secreted chain: T9 chain with A1I, G8V, E14K, E17A
The assay is described as above. The protocol: as §2

In assay [10] the target is T12, CSF-1R20-512-Fc (R&D Systems cat. 329-MR) (human, UniProt P07333 20-512).
T12 construct: Bought; also called CSF-1R1-512:Fc; soluble human CSF-1R; not shown: Fc region of a human IgG1
In words: ELISA: coated human CSF1 1-444 or PBS; Fc-D1-D5 human CSF-1R 0.125 µg/mL; anti-human IgG-Fc-HRP.

Experimental findings from US20170002081A1 (TRANSGENE S A, published 2017) are described below.

Changes are numbered by the printed parent chain.

B1: mAb CXIIG6 (antibody, mouse IgG2a, kappa)
heavy: EVKLEESGGGLVQPGGSMKLSCAASGFTFSDAWMDWVRQSPEMGLEWVAEIRSKANNHATFYAESVKGRFTISRDDSKSSVYLQMNSLRPEDTGIYYCTRVKVGFDNWGQGTTLTVSSAKTTAPSVYPLAPVCGDTTGSSVTLGCLVKGYFPEPVTLTWNSGSLSSGVHTFPAVLQSDLYTLSSSVTVTSSTWPSQSITCNVAHPASSTKVDKKIEPRGPTIKPCPPCKCPAPNLLGGPSVFIFPPKIKDVLMISLSPIVTCVVVDVSEDDPDVQISWFVNNVEVHTAQTQTHREDYNSTLRVVSALPIQHQDWMSGKEFKCKVNNKDLPAPIERTISKPKGSVRAPQVYVLPPPEEEMTKKQVTLTCMVTDFMPEDIYVEWTNNGKTELNYKNTEPVLDSDGSYFMYSKLRVEKKNWVERNSYSCSVVHEGLHNHHTTKSFSRTPGK
light: DIQMTQSPASLSVSVGETVTITCRASENIYSNLAWYQQKQGKSPQLLVHAATNLADGVPSRFSGSGSGTQYSLKINSLQSEDFGSYYCQHFWGTPRTFGGGTKLEIKRADAAPTVSIFPPSSEQLTSGGASVVCFLNNFYPKDINVKWKIDGSERQNGVLNSWTDQDSKDSTYSMSSTLTLTKDEYERHNSYTCEATHKTSTSPIVKSFNRNEC
notes: Mouse IgG2a; Used as hybridoma supernatant or as purified recombinant antibody; also called CXIIG6 hybridoma supernatant; CXIIG6 SN
Regarding B1, the binding result in the assay with EGFR:Fc is given as “no binding”.

B2: H19K12 (antibody, V domains shown)
VH: EVQLVESGGGLVQPGGSLKLSCAASGFTFSDAWMDWVRQSPEMGLEWVAEIRSKANNHATFYAESVKGRFTISRDDSKSSVYLQMNSLRAEDTGIYYCTRVKVGFDNWGQGTTLTVSS
VL: DIQMTQSPSSLSASVGDRVTITCRASENIYSNLAWYQQKDGKSPQLLVHAATNLADGVPSRFSGSGSGTQYSLTISSLQPEDFGSYYCQHFWGTPRTFGGGTKLEIKR
notes: Humanized human IgG1/kappa; also called hCXIIG6 variant H19K12
As usually defined, the IC50 is the point on the concentration scale where inhibition reaches its midpoint. Low readings indicate inhibition by little substance, high ones a need for much substance. As usually defined, the Ki is the equilibrium dissociation constant of an inhibitor or competing ligand from its target. The low end stands for tighter binding, the high end for weaker binding. In [1], B2 registered an IC50 of 1.28 nM. In assay [2], this molecule had a Ki of 0.754 nM. The binding result in assay [3], in [4], in assay [5], in assay [6], in [7] and in assay [8] was “no binding (tested: 500 ng/ml)” in each case.

B3: Chimeric CXIIG6 IgG1 (antibody)
heavy: not shown
light: DIQMTQSPASLSVSVGETVTITCRASENIYSNLAWYQQKQGKSPQLLVHAATNLADGVPSRFSGSGSGTQYSLKINSLQSEDFGSYYCQHFWGTPRTFGGGTKLEIKRTVAAPSVFIFPPSDEQLKSGTASVVCLLNNFYPREAKVQWKVDNALQSGNSQESVTEQDSKDSTYSLSSTLTLSKADYEKHKVYACEVTHQGLSSPVTKSFNRGEC
Take B3: the IC50 in assay [1] is 1.48 nM. Besides, the binding result in assay [9] is on record as “no binding”; with pTG18036 it was “binds”; in the assay with pTG17983, “binds”. Further, in assay [2], the affinity, expressed as Ki, was 0.874 nM.

B4: human CSF1 1-444 (Geneart) (ligand)
chain: EEVSEYCSHMIGSGHLQSLQRLIDSQMETSCQITFEFVDQEQLKDPVCYLKKAFLLVQDIMEDTMRFRDNTPNAIAIVQLQELSLRLKSCFTKDYEEHDKACVRTFYETPLQLLEKVKNVFNETKNLLDKDWNIFSKNCNNSFAECSSQDVVTKPDCNCLYPKAIPSSDPASVSPHQPLAPSMAPVAGLTWEDSEGTEGSSLLPGEQPLHTVDPGSAKQAPPRSTCQSFEPPETPVVKDSTIGGSPQPRPSVGAFNPGMEDILDSAMGTNWVPEEASGEASEIPVPQGTELSPSRPGGGSMQTEPARPSNFLSASSPLPASAKGQQPADVTGTALPRVGPVRPTGQDWNHTPQKTDHPSALLRDPPEPGSPRISSLRPQGLSNPSTLSAQPQLSRSHSSGSVLPLGELEGRR
modifications: biotinylated with Biotin-NHS in the assay of
notes: also called biotinylated CSF-1
As for B4, the binding result in assay [10] was “binds”.
